This series is described as follows: soluble on expression in E. coli; label from the status in PepcDB or PDB records.
Take “MAHHHHHHMEQFLNQVAASNKTVKCIKGALQIYDTYGEVFSLVHERRYEEAGIICTHFSDHIGQLFLGTTDGNCLVYYHDERSGDEQRSGVEERSGDDLYGDADRCGVPPVGRKKKGGVLEYLHKGVKRKRERASFYTNSEHIYNLDSLPKEIKITDAGDVLIKKDLINAKVKMNPKLSSFTANAYEKKRQVGMYSKYIVDANPSGKDPSSSQTNKGNEYEEEDIVEKLRKREQSKQGGDYFMNAYKYTQPSAIIDYSSGEEQEYSQLLKKPKCPQCGVKNCVCGFMRSGGRRAR”: the “soluble on expression in E. coli” value is “not soluble”.

With “MAHHHHHHMGAVDYEVNETHLTGAQALSDYLLDTWYVHDMPRYGAVSCIDRNVTALLRFADEWRGTNVNVFLYNSSSHHQAGLSLATYYDLFIKSFLGRDSAFMRYEAELFNEPASQSQLGFIFIGAPGGRSAGGLPGRAVGRHGPCGAARGVDCDPARRRALLRCADDAPPGGGGGACEHCGDHGARVRAVCRRQGTPEEQVRQRLRGERAAGVGAARGALCVVHAGGVPRRCAERRRGSAVRVPAAARSRLR”, the “soluble on expression in E. coli” value is given as “not soluble”.

In the case of “MLPVQILKDNAQEERGESARLSSFVGAIAIGDLVKSTLGPKGMDKILISGNPESAGGIKVTNDGATILKSIGVDNPAAKVLVDMSMTQDHEVGDGTTSVTVLAAELLKEAEKLVNQRIHPQTIISGYRRALGIAQESLKKSSIESGDNIRDDLLKIARTTLGSKILSQHKEHFAQLAVDAVLRLKGSGNLDAIQIIKKLGGSMNESYLDEGFLLEKLPGMFQPRRVEKAKILIANTPMDTDKVKVFGSRVRVDGVAKVAELEAAEKLKMKEKVDKILAHNCNVFINRQLIYNYPEQLFADAKVMAIEHADFEGIERLALVLGGEIVSTFDSPQTAQFGSCDLIEEIMIGEDRLLRFSGVKLGEACSVVLRGATQQILDESERSLHDALCVLVTHVKESKTVAGAGASEILMSSAIAVEAQKVAGKEALAVEAFGRALAQLPTIICDNAGLDSAELVTRLRAEHANGRHNMGIDIEKGEVADVTKLGVIESYNVKLCMVSSAAEATEQILRVDDIIKAAPRARAQDNRPC”, the “soluble on expression in E. coli” value is given as “not soluble”.

Regarding “QVQLQQSGAELVKPGASVKMSCKASGYTFTTYPIEWMKQNHGKSLEWIGNFHPYSDDTNYNEKFKGKAKLTVEKSSSTVYLEFSRLTSDDSAVYYCAIHYGSAYAMDYWGQGTSVTVSS”, the “soluble on expression in E. coli” value is “soluble”.

With “MSLSVKIVIKPNTYFDSVSLMSISTRANKLDGVEQAFVAMATEMNKGVLKNLGLLTPELEQAKNGDLMIVINGKSGADNEQLLVEIEELFNTKAQSGSHEARYATIGSAKKHIPESNLAVISVNGLFAAREARQALQNDLNVMLFSDNVSVEDELALKQLAHEKGLLMMGPDCGTAIINGAALCFGNAVRRGNIGIVGASGTGSQELSVRIHEFGGGVSQLIGTGGRDLSEKIGGLMMLDAIGMLENDPQTEIIALISKPPAPAVARKVLERARACRKPVVVCFLDRGETPVDEQGLQFARGTKEAALKAVMLSGVKQENLDLHTLNQPLIADVRARLQPQQKYIRGLFCGGTLCDETMFAVMEKHGDVYSNIQPDPEFRLKDINRSIKHTFLDFGDDDFTNGKPHPMIDPTNRISRLIEEARDPEVAVIVMDFVLGFGSHEDPVGSTIETIKEAKAIAAAEGRELIILAYVLGTDLDTPSLEQQSQMLLDAGVILASSSTNTGLLAREFICKGEEGHHHHHH”, the “soluble on expression in E. coli” value was “soluble”.

“SLKYCIHNTRLIIGIADRVIENGSILFDQDKILKVSAHSITDADVFIDGTTFSVLPGLIDVHVHLGMDCSVDPFDTMENTEDAFTSFIAYKQGLQFLRAGITTVRNLGTKNNVDIIYKKAVESGLVIGPRVYAAGQPLIMTGGHGQPMGTEVDGKDEVIKATRQRIKEGADLIKIMATGGVLTKGNHPGAVHFNVDELKCICQEAAKASLTTAAHAIGLNGVKNAIKAGVNTIEHGYYLDKETVDTMRDLGIYLTPTLLAPTLLQKNSEHIPQHMIDKIEEIEKEHRKSFRLALERGVKIIAGTDAGTPFNNPGQLVEELKIMLEEGMTTAQAIESATYLGAKCLKVDSLIGSLEEQKLADLIVVKGNPLEDISNLKNIQHVFKGGVRLYPDQIH”: the “soluble on expression in E. coli” value is given as “soluble”.

For the sequence “MSLFKKNFDIKDDRNLTMLVDFYELTMGNGYLNKNVGNKTAYFDMFFRRVPDNGGYCIMAGVQQLTEYLSNLRFTKEDIDYLRSKHEFSEEFLSYLKDFKFECDVWAVPEGNPVFPNEPLVTVKGPAIQAQFVETMILLTINHQTLIATKANRICRAAGNRPVMEFGSRRAQGYDGAIYGARAAVIGGCSSTACTISEQMFGVNAVGTMAHSWVQLFDNEFEAFKAWADVYPENCVLLVDTYNVLKSGLPNAIKVFDEVLKPKGIRPSGIRIDSGDITYLTKKCRKILDEAGYSDCKIVISNSLDEHIITDVLLQGAEVDSFGVGERLITAKSEPVFGGVFKLCAVENDEGNIVPKIKISENQEKITNPGFKKIYRLFDKETDKALADLITLNDEVIDETKPLEIFDPIYTWKKKKLTHYYVKDLRVQLFKKGELVYENPEVLEIRNIAKKETEKLWAEVLRLENPHTYYVDLSKKLWDLKHNLLEKYSNAEGHHHHHH”, the “soluble on expression in E. coli” value is recorded as “soluble”.

For the sequence “MGSDKIHHHHHHMTAMRGDGGRVLHTGFGVVRGVLFDIDDTLVDLEYAMTTALRDVSEHLLPGLDQAGWEKFGRIFTHETTHFYDRYLAGELTFNEQRLLRGRAALGHFGVELEEGEESHAWVTSYAALQHGYVRAFEDVAPVLDALDAAGIPYGAVSNNVHDYQRVKLDAAGLQRITVLVGTDTLGVPKPDPAIYLEGVRLLGSSAAETLYVGDNRLLDAEGSTAAGLLGVWLNRSGETESAFAGHQVGSLAELLG”, the “soluble on expression in E. coli” value is recorded as “not soluble”.

In the case of “RNLSGQSRTVGVEYVSANPTGPLHVGHGRAAAIGDCLARLLEANGWNVKREFYYNDAGVQIENLVRSVQARARGLKPGDALWPTDAYNGEYIADIAKAYLAGDSINMVDTIITSTKNVDDTAAIHHFAVNYLRNEQNHDLAAFNVDFDIYFLESSLYKDGKVEETVQKLINSGHTYEEGGALWLKSTHFGDDKDRVMRKSDGSYTYFVPDIAYHLSKWQRGYERAITELGADHHGSLARVHAGLQALEIGIPPGWPEYVLHQMVTVMRGGEEVKLSKRSGGYVTLRDLIEETSTDATRWFLIARKPDSQLTFDIDLARQKSNDNPVFYVQYAYARVCSLMHQAHE”, the “soluble on expression in E. coli” value is on record as “not soluble”.

“GMLEFTKRSLMNKYNINERVLELYERALNDVEKEFKYYDEIREYNQLKVLKAFQEERISESHFTNSSGYGYNDIGRDSLDRVYANIFNTESAFVRPHFVNGTHAIGAALFGNLRPNDTMMSICGMPYDTLHDIIGMDDSKKVGSLREYGVKYKMVDLKDGKVDINTVKEELKKDDSIKLIHIQRSTGYGWRKSLRIAEIAEIIKSIREVNENVIVFVDNCYGEFVEEKEPTDVGADIIAGSLIKNIGGGIATTGGYIAGKEEYVTQATFRVTVPGIGGECGSTFGVMRSLYEGLFMAPHVTIEAVKGAVFCARIMELAGFDVLPKYNDKRTDIIQAIKFNDEKKLIDFIKGIQTASPVDSFVQCEAWDMPGYEDKVIMAAGTFVQGASIELSADAPIREPYIGYLQGGLTFDHAKLGVLIALSKLIM”: the “soluble on expression in E. coli” value is “soluble”.

Regarding “MDVLGALKYFRKKKKIAQKDVLPKKGKQTYRRIEIGEAKLSYEDLMTALQSLGITFNEFFFMVSDTRIMASSEVKHQIECCQMGLNNTSEKKNLIHYFYQLERNPHKNALEMSIYTDIKLTFSNDWEEIPEFDETDRMVILALISSKSYYTYYDYQMVTNPAALFSENEVLQILEQMFPVKDAELRDTQTLNVAYGFYLNIITGELYKKNYAKAREYLALVSVTTIPAEIYYIHFNLRYLKNLTYYLYTGKMRYYKEVIAVIDMIESFGDARLAEGMKKEMLQLTAGRTFNLEKGQFPLNIVTEK”, the “soluble on expression in E. coli” value is “not soluble”.

For the sequence “MLEVREVEKSFKKKKVLKGGSLSVNKGEIVGLLGPNGAGKTTLFNSIIGFISVDKGKVLLDGEDVTHLPPFKRAQKGLAFLPQEHTLFEDLTVLENLLIFLEFFTDSKEEAITKAEALLEDFGLLELKDQKAYALSGGQKRRLEIARSLITTPKYVLLDEPFAGLDPIIVSEIREIVKNLKNNGIGVLITDHNVRETIKMVDRVYIISEGKVLAHGKPEEVVNNEAVRKTYLGVDFKL”, the “soluble on expression in E. coli” value is “soluble”.

Take “MMSDRHFQGNRIRLRAPEPEDLEVMFRFENATDVWEMSNTTGPYSRFQLKQYIEQTQNDLFADRQLRLMIENGNRQVVGIVDLCSFDPLHNRAEVGIMVDKSCRRQGIGRNALALLEEHCFRYLGIHQLFAYIAVENLPSRRLFAACGYKESAVLKEWAHTFGGGYTDVLVVQKLNLS”: the “soluble on expression in E. coli” value is given as “not soluble”.

Consider “MGSDKIHHHHHHMISMKIQQILPADPAKAILIGRIWDPVSQGPRVVSVRGEDVFDLSPGVRTVAELMEYENPLEVVLQRTDAPRWDLAEIVEASQGTDRNRPHLLAPIDLQVVKACGVTFVESMIERVIEERCGGDFTRAAEVRKAVADVLGGSLDSVRPGSEQAREAKRILSAQGMWSQYLEVGLGPDPEVFTKAPVLSSVGYGSGVGIPSFSSWNNPEPELVLILNSAGDPLGATLGNDVNLRDVEGRSALLLGMAKDNNASCAIGPLIRLFHKDFTLESLRTEEITLTVEGTDGYRMEGRNSVARISRSFEELIKAAHGSHHQYPDGFALFTGTLFAPTQDRDTEGLGFTHKNGDIVTISSPQLGTLINQTQSTEETEPWTFGITALFRYLAQTGTGGAPSITGSPVSAAPGKSAGMKIGFRN”, for which the “soluble on expression in E. coli” value was “not soluble”.

Turning to “MGHHHHHHSHMDALEGESFALSFSSASDAEFDAVVGYLEDIIMDDEFQLLQRNFMDKYYLEFEDTEENKLIYTPIFNEYISLVEKYIEEQLLQRIPEFNMAAFTTTLQHHKDEVAGDIFDMLLTFTDFLAFKEMFLDYRAEKEGRGLDLSSGLVVTSLCKSSSLPASQNNLRH”, the “soluble on expression in E. coli” value is recorded as “soluble”.

With “MVVNKRLILILLFILNTAKSDELSWKGNDFTLYARQMPLAEVLHLLSENYDTAITISPLITATFSGKIPPGPPVDILNNLAAQYDLLTWFDGSMLYVYPASLLKHQVITFNILSTGRFIHYLRSQNILSSPGCEVKEITGTKAVEVSGVPSCLTRISQLASVLDNALIKRKDSAVSVSIYTLKYATAMDTQYQYRDQSVVVPGVVSVLREMSKTSVPTSSTNNGSPATQALPMFAADPRQNAVIVRDYAANMAGYRKLITELDQRQQMIEISVKIIDVNAGDINQLGIDWGTAVSLGGKKIAFNTGLNDGGASGFSTVISDTSNFMVRLNALEKSSQAYVLSQPSVVTLNNIQAVLDKNITFYTKLQGEKVAKLESITTGSLLRVTPRLLNDNGTQKIMLNLNIQDGQQSDTQSETDPLPEVQNSEIASQATLLAGQSLLLGGFKQGKQIHSQNKIPLLGDIPVVGHLFRNDTTQVHSVIRLFLIKASVVNNGISHGLEHHHHHH”, the “soluble on expression in E. coli” value was “soluble”.

Take “MGSDKIHHHHHHMTINFRRNALQLSVAALFSSAFMANAADVPQVKVTVTDKQCEPMTITVNAGKTQFIIQNHSQKALEWEILKGVMVVEERENIAPGFSQKMTANLQPGEYDMTCGLLTNPKGKLIVKGEATADAAQSDALLSLGGAITAYKAYVMAETTQLVTDTKAFTDAIKAGDIEKAKALYAPTRQHYERIEPIAELFSDLDGSIDAREDDYEQKAADPKFTGFHRLEKALFGDNTTKGMDQYAEQLYTDVVDLQKRISELAFPPSKVVGGAAGLIEEVAASKISGEEDRYSHTDLWDFQANVEGSQKIVDLLRPQLQKANPELLAKVDANFKKVDTILAKYRTKDGFETYDKLTDADRNALKGPITALAEDLAQLRGVLGLD”: the “soluble on expression in E. coli” value is “not soluble”.

“TIVKSEIIRKLMDAKKFLLDGYIDEGVKIVLEITKSSTKSEYNWFICNLLESIDCRYMFQVLDKIGSYFDLDKCQNLKSVVECGVINNTLNEHVNKALDILVIQGKRDKLEEIGREILKNNEVSASILVAIANALRRVGDERDATTLLIEACKKGEKEACNAVNTLTVRSVM”: the “soluble on expression in E. coli” value was “soluble”.
